Measurements reported in patent publication US20240043515A1 (Chugai, published 2024).

T1: human FcγRIIa R extracellular domain (human, UniProt P12318 34-217)
T1 construct: extracellular domain; also called hFcγR IIa R; FcγRIIa allotype R131
T1 sequence (looked up): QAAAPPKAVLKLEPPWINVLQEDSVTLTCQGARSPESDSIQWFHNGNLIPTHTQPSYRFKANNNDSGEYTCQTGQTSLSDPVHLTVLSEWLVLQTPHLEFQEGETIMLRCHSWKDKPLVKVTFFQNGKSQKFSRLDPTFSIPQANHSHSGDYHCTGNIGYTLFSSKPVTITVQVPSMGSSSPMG

T2: human FcγRIIa H extracellular domain (human, UniProt P12318 34-217)
T2 construct: extracellular domain; also called hFcγR IIa H; FcγRIIa allotype H131
T2 sequence (looked up): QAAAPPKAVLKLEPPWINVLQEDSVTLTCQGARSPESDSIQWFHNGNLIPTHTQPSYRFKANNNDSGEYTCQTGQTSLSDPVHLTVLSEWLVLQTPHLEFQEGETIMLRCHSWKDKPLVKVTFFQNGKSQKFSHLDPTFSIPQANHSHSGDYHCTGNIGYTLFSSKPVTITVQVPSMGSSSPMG

T3: hFcγRIIaH on Jurkat effector cells (human, UniProt P12318 34-317)
T3 sequence (looked up): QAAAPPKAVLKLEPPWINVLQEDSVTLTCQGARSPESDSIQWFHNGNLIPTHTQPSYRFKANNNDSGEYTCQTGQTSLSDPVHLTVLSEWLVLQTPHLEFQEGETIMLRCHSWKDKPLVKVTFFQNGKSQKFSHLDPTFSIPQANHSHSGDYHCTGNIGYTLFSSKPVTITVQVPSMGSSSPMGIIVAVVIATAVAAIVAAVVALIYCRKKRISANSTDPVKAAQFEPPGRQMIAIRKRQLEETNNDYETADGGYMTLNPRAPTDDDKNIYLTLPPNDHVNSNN

T4: human FcγRIIb extracellular domain (human, UniProt P31994 43-217)
T4 construct: extracellular domain; also called hFcγR IIb
T4 sequence (looked up): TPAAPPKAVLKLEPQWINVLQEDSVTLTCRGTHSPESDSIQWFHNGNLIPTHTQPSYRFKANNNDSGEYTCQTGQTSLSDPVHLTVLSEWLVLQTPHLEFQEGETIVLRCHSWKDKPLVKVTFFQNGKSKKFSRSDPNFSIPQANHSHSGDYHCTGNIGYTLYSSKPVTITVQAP


Columns and labels:
[1] = molecular target: T1, human FcγRIIa R extracellular domain; assay: SPR; KD for hFcγRIIb divided by KD for this FcγR
[2] = molecular target: T2, human FcγRIIa H extracellular domain; assay: SPR; KD for hFcγRIIb divided by KD for this FcγR
[3] = molecular target: T5, human FcγRIIIa V extracellular domain (human, UniProt P08637 17-208); assay: SPR; KD for hFcγRIIb divided by KD for this FcγR
T5 construct: extracellular domain; also called hFcγR IIIa V; FcγRIIIa allotype V158
T5 sequence (P08637 17-208 F176V): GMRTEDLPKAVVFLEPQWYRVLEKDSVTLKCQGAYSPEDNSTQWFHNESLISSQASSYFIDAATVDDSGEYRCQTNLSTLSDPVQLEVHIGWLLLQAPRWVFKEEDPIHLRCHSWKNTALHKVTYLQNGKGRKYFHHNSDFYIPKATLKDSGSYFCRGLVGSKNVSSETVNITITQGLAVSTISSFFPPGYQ

[4] = molecular target: T6, human FcγRIIIa F extracellular domain (human, UniProt P08637 17-208); assay: SPR; KD for hFcγRIIb divided by KD for this FcγR
T6 construct: extracellular domain; also called hFcγR IIIa F; FcγRIIIa allotype F158
T6 sequence (P08637 17-208): as the sequence (P08637 17-208 F176V) above, with V160F counted along it

[5] = molecular target: T3, hFcγRIIaH on Jurkat effector cells; assay: cell-based or functional assay
[6] = molecular target: T1, human FcγRIIa R extracellular domain; assay: SPR; KD of G1d divided by KD of this antibody
[7] = molecular target: T7, human FcγRIa extracellular domain (human, UniProt P12314 16-292); assay: SPR; KD of G1d divided by KD of this antibody
T7 construct: extracellular domain; also called hFcγR Ia
T7 sequence (P12314 16-292): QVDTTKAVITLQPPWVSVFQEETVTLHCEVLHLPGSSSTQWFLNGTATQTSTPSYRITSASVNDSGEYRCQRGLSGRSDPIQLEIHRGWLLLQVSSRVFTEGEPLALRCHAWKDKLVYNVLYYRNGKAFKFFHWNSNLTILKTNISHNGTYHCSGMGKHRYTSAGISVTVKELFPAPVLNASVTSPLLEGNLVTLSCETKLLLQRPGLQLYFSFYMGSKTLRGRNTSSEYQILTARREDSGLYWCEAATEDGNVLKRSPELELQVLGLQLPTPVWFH

[8] = molecular target: T4, human FcγRIIb extracellular domain; assay: SPR; KD of G1d divided by KD of this antibody
[9] = molecular target: T2, human FcγRIIa H extracellular domain; assay: SPR; KD of G1d divided by KD of this antibody
[10] = molecular target: T5, human FcγRIIIa V extracellular domain; assay: SPR; KD of G1d divided by KD of this antibody
[11] = molecular target: T6, human FcγRIIIa F extracellular domain; assay: SPR; KD of G1d divided by KD of this antibody
[12] = molecular target: hFcγRIIIaV on Jurkat effector cells (human, UniProt P08637 17-254); assay: cell-based or functional assay
Chain of hFcγRIIIaV on Jurkat effector cells (P08637 17-254, form in doubt): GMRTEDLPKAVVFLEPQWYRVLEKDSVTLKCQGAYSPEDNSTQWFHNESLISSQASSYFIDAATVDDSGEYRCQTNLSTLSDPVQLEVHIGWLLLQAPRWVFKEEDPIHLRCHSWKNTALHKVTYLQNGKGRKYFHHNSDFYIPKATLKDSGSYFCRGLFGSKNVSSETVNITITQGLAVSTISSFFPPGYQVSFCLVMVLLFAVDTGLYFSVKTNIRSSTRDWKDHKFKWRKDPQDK

| A/I ratio (KD for FcγRIIb divided by KD for each FcγR) [1] | A/I ratio (KD for FcγRIIb divided by KD for each FcγR) [2] | A/I ratio (KD for FcγRIIb divided by KD for each FcγR) [3] | A/I ratio (KD for FcγRIIb divided by KD for each FcγR) [4] | EC50 of reporter gene induction (ADCP Reporter Bioassay, Hepa1-6/hEREG target cells) [5] | Relative value to KD between G1d and hFcgRs [6] | Relative value to KD between G1d and hFcgRs [7] | Relative value to KD between G1d and hFcgRs [8] | Relative value to KD between G1d and hFcgRs [9] | Relative value to KD between G1d and hFcgRs [10] | Relative value to KD between G1d and hFcgRs [11] | EC50 of reporter gene induction (ADCC Reporter Bioassay, Hepa1-6/hEREG target cells) [12] | Binder |
| --- | --- | --- | --- | --- | --- | --- | --- | --- | --- | --- | --- | --- |
| 12.8 ratio | 60.3 ratio | 9720 ratio | 4310 ratio | 85 ng/mL | 1 times | 3.4 times | 0.5 times | 3.1 times | 158 times | 578 times | 0.304 ng/mL | EGL-ART12 (H240-Kn498/L73-k0//H240-H1518/L73-k0) (antibody, human IgG1, kappa, Kn498: L234F/L235Q/G236W/S239M/T250V/H268D/D270E/S298A/T307P/A330M + Y349C/T366W; H1518: T250V/D270E/S298A/T307P/K326D/A330M/K334E + D356C/T366S/L368A/Y407V) heavy 1: QDQLVQSGAEVKKPGASVKVSCKASGFNIKDTYIQWVRQAPGQGLEWMGRIDPLRKQTKYREKFEGRVTITADTSTNTAYMELSSLRSEDTAVYYCVRSGREFDYWGQGTLVTVSSASTKGPSVFPLAPSSKSTSGGTAALGCLVKDYFPEPVTVSWNSGALTSGVHTFPAVLQSSGLYSLSSVVTVPSSSLGTQTYICNVNHKPSNTKVDKKVEPKSCDKTHTCPPCPAPEFQWGPMVFLFPPKPKDVLMISRTPEVTCVVVDVSDEEPEVKFNWYVDGVEVHNAKTKPREEQYNATYRVVSVLPVLHQDWLNGKEYKCKVSNKALPMPIEKTISKAKGQPREPQVCTLPPSRDELTKNQVSLWCLVKGFYPSDIAVEWESNGQPENNYKTTPPVLDSDGSFFLYSKLTVDKSRWQQGNVFSCSVMHEALHNHYTQKSLSLSP heavy 2: QDQLVQSGAEVKKPGASVKVSCKASGFNIKDTYIQWVRQAPGQGLEWMGRIDPLRKQTKYREKFEGRVTITADTSTNTAYMELSSLRSEDTAVYYCVRSGREFDYWGQGTLVTVSSASTKGPSVFPLAPSSKSTSGGTAALGCLVKDYFPEPVTVSWNSGALTSGVHTFPAVLQSSGLYSLSSVVTVPSSSLGTQTYICNVNHKPSNTKVDKKVEPKSCDKTHTCPPCPAPELLGGPSVFLFPPKPKDVLMISRTPEVTCVVVDVSHEEPEVKFNWYVDGVEVHNAKTKPREEQYNATYRVVSVLPVLHQDWLNGKEYKCKVSNDALPMPIEETISKAKGQPREPQVYTLPPSRCELTKNQVSLSCAVKGFYPSDIAVEWESNGQPENNYKTTPPVLDSDGSFFLVSKLTVDKSRWQQGNVFSCSVMHEALHNHYTQKSLSLSP light: DIQMTQSPSSLSASVGDRVTITCRASQDIHKYIAWYQQKPGQAPRLLIQYTSTLQPGVPSRFSGSGSGTDYTFTISSLQPEDIATYYCLQYEQLRTFGGGTKVEIKRTVAAPSVFIFPPSDEQLKSGTASVVCLLNNFYPREAKVQWKVDNALQSGNSQESVTEQDSKDSTYSLSSTLTLSKADYEKHKVYACEVTHQGLSSPVTKSFNRGEC |
| 18.6 ratio | 18.2 ratio | 52.6 ratio | 18.9 ratio | 14.9 ng/mL | 24.7 times | 6.2 times | 8 times | 16.4 times | 15.1 times | 44.7 times | 3.7 ng/mL | EGL-GASDIE (H240-Kn037/L73-k0//H240-H1036/L73-k0) (antibody, human IgG1, kappa, G236A/S239D/I332E in both heavy chains; Kn037 with Y349C/T366W, H1036 with D356C/T366S/L368A/Y407V) heavy 1: QDQLVQSGAEVKKPGASVKVSCKASGFNIKDTYIQWVRQAPGQGLEWMGRIDPLRKQTKYREKFEGRVTITADTSTNTAYMELSSLRSEDTAVYYCVRSGREFDYWGQGTLVTVSSASTKGPSVFPLAPSSKSTSGGTAALGCLVKDYFPEPVTVSWNSGALTSGVHTFPAVLQSSGLYSLSSVVTVPSSSLGTQTYICNVNHKPSNTKVDKKVEPKSCDKTHTCPPCPAPELLAGPDVFLFPPKPKDTLMISRTPEVTCVVVDVSHEDPEVKFNWYVDGVEVHNAKTKPREEQYNSTYRVVSVLTVLHQDWLNGKEYKCKVSNKALPAPEEKTISKAKGQPREPQVCTLPPSRDELTKNQVSLWCLVKGFYPSDIAVEWESNGQPENNYKTTPPVLDSDGSFFLYSKLTVDKSRWQQGNVFSCSVMHEALHNHYTQKSLSLSP heavy 2: QDQLVQSGAEVKKPGASVKVSCKASGFNIKDTYIQWVRQAPGQGLEWMGRIDPLRKQTKYREKFEGRVTITADTSTNTAYMELSSLRSEDTAVYYCVRSGREFDYWGQGTLVTVSSASTKGPSVFPLAPSSKSTSGGTAALGCLVKDYFPEPVTVSWNSGALTSGVHTFPAVLQSSGLYSLSSVVTVPSSSLGTQTYICNVNHKPSNTKVDKKVEPKSCDKTHTCPPCPAPELLAGPDVFLFPPKPKDTLMISRTPEVTCVVVDVSHEDPEVKFNWYVDGVEVHNAKTKPREEQYNSTYRVVSVLTVLHQDWLNGKEYKCKVSNKALPAPEEKTISKAKGQPREPQVYTLPPSRCELTKNQVSLSCAVKGFYPSDIAVEWESNGQPENNYKTTPPVLDSDGSFFLVSKLTVDKSRWQQGNVFSCSVMHEALHNHYTQKSLSLSP light: DIQMTQSPSSLSASVGDRVTITCRASQDIHKYIAWYQQKPGQAPRLLIQYTSTLQPGVPSRFSGSGSGTDYTFTISSLQPEDIATYYCLQYEQLRTFGGGTKVEIKRTVAAPSVFIFPPSDEQLKSGTASVVCLLNNFYPREAKVQWKVDNALQSGNSQESVTEQDSKDSTYSLSSTLTLSKADYEKHKVYACEVTHQGLSSPVTKSFNRGEC |
